From US20230192767A1 (MEDIKINE, published 2023)

T1: human IL-2Rβ (CD122 protein, Fc Tag) (27-239) (human, UniProt P14784 27-239)
T1 construct: range 27-239; Bought protein; also called IL-2Rβ subunit; IL-2Rβ-Fc; not shown: Fc Tag of the bought protein (ACRObiosystems ILB-H5253)
T1 sequence (looked up): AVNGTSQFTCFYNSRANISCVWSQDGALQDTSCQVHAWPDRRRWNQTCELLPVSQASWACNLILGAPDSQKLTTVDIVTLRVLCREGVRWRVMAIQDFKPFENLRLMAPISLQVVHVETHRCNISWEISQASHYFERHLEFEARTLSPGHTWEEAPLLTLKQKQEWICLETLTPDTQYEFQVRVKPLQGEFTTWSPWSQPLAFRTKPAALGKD


Columns and labels:
[1] = target: T1, human IL-2Rβ (CD122 protein, Fc Tag) …; assay: IC50, method not told in the paragraph
[2] = target: T1, human IL-2Rβ (CD122 protein, Fc Tag) …; assay: pH-dependent ELISA (Examples 9-12)
Experimental: For each peptide to be assayed, 16 ELISA plate wells were coated with neutravidin ([…] in PBS pH7.2) at 50 μL/well. The coated wells were incubated at 25° C. for at least 1 h.
The neutravidin was removed from each well. Three-hundred (300) μL of blocking buffer (1×PBS pH 7.2, 1% BSA) was added to each well of the neutravidin-coated plates. All plates were covered and maintained at 25° C. for 1 h or overnight at 4° C.
The biotinylated peptides were diluted to 1 μM in PBT pH 7.2 buffer and 50 uL was added to the appropriate 16 wells (8 for each binding pH). The plates were incubated at 25° C. for at least 1 h.

| Binder | IC50 [1] [µM] | decrease in binding at pH 7.5 compared to pH 6.0 [2] [%] |
| --- | --- | --- |
| YDCRIAQVGELCDL (also called Peptide E) [IL-2Rβ ligand SEQ ID NO: 58] | < 10 |  |
| KDCRTALIGDLCDLTLHLGG [SEQ ID NO 425] |  | > 15 |
| QDGAKLKECRVAQVGELCEF [SEQ ID NO 427] |  | > 15 |
| QVLKNCRLAHIGELCYLSER [SEQ ID NO 428] |  | > 15 |
| RTMKQCSIAQVGELCDLAVT [SEQ ID NO 429] |  | > 15 |
| KSCARAQVGELCYIEGAEDA [SEQ ID NO 430] |  | > 15 |
| LDCRIAPLGELCDMFISAFN [SEQ ID NO 436] |  | > 15 |
| NMCLVGDYWPSCQI [IL-2Rβ ligand SEQ ID NO: 169] | < 10 |  |
| LECRLARLGDLCYL [SEQ ID NO 443] |  | > 15 |
| LLCRMAHLGELCDL [SEQ ID NO 448] |  | > 15 |
| QICDVGQWWPDCQV [IL-2Rβ ligand SEQ ID NO: 170] | < 10 |  |
| LRCRMAQVGDLCDLDRAWDW [SEQ ID NO 454] |  | > 15 |
| LSCSIAQVGELCDL [SEQ ID NO 456] |  | > 15 |
| SWVNNCRMAQVGELCDLPNW [SEQ ID NO 460] |  | > 15 |
| TYAKLVNYCWTAQLGELCYL [SEQ ID NO 461] |  | > 15 |
| GLNPMIPGCQMAQVGELCEL [SEQ ID NO 463] |  | > 15 |
| CCYQAMVGDLCDFC [IL-2Rβ ligand SEQ ID NO: 83] | < 10 |  |
| LEFMWIQDCGMAEVGELCEL [SEQ ID NO 468] |  | > 15 |
| DEMQDCQIAQVGELCDLGLE [SEQ ID NO 470] |  | > 15 |
| EYFSHDQDCQTAQLGELCKM [SEQ ID NO 471] |  | > 15 |

| Binder | IC50 [1] [µM] | decrease in binding at pH 7.5 compared to pH 6.0 [2] [%] |
| --- | --- | --- |
| QDCRKANVGELCYLDWDSPT [SEQ ID NO 476] |  | > 15 |
| QDCRLAHLGDLCDLWSPRQN [SEQ ID NO 477] |  | > 15 |
| CGMAIGDLCMWT [IL-2Rβ ligand SEQ ID NO: 1084] | < 10 |  |
| QDCRMAQVGHLCDL [SEQ ID NO 481] |  | > 15 |
| AVKRFRQDCRTAPVGTLCDL [SEQ ID NO 485] |  | > 15 |
| WGRQECRFANVGDLCDVSNY [SEQ ID NO 491] |  | > 15 |
| RWGDVGDLLMPL [IL-2Rβ ligand SEQ ID NO: 1043] | < 10 |  |
| VLEVLRQECRMAQVGELCDL [SEQ ID NO 494] |  | > 15 |
| SVWQECSMAQVGDLCELHIG [SEQ ID NO 495] |  | > 15 |
| WPMSQFQKCATAQVGELCEL [SEQ ID NO 499] |  | > 15 |
| FIAQKCRLAKVGELCDLGYS [SEQ ID NO 500] |  | > 15 |
| NLRQNCRDAPVGELCDLEWI [SEQ ID NO 501] |  | > 15 |
| QNCSTAKVGELCDLLMEGTE [SEQ ID NO 503] |  | > 15 |
| QPCRNAHLGQLCDLQTWTNS [SEQ ID NO 505] |  | > 15 |
| GYEPIMRACRNAQVGDLCDL [SEQ ID NO 506] |  | > 15 |
| VTGWTYRDCRIANVGDLCEL [SEQ ID NO 507] |  | > 15 |
| SDCSVANVGDLCNL [SEQ ID NO 515] |  | > 15 |
| VDCWIAQLGELCELEDGRRQ [SEQ ID NO 524] |  | > 15 |
| VLCRIAQVGQLCEL [SEQ ID NO 526] |  | > 15 |
| WQCRWAQVGELCDLSSENDN [SEQ ID NO 531] |  | > 15 |

| Binder | IC50 [1] [µM] | decrease in binding at pH 7.5 compared to pH 6.0 [2] [%] |
| --- | --- | --- |
| YACRFAHVGDLCDL [SEQ ID NO 534] |  | > 15 |
| EQTRSGYACRTAQVGELCDL [SEQ ID NO 535] |  | > 15 |
| YDCQKAQLGELCDLRYSVRD [SEQ ID NO 536] |  | > 15 |
| YDCRMAKVGDLCDLWSVWGR [SEQ ID NO 548] |  | > 15 |
| TWAYDCRTAEVGELCDLPVQ [SEQ ID NO 551] |  | > 15 |
| YLCQVAGVGELCDLEESGRN [SEQ ID NO 566] |  | > 15 |
| GRFYPCNMAQVGELCELMEY [SEQ ID NO 568] |  | > 15 |
| YPCRMADVGELCDL [SEQ ID NO 569] |  | > 15 |
| LLSYPCRMAQVGELCDIAMK [SEQ ID NO 570] |  | > 15 |
| QDCRMAHLGELCTL [SEQ ID NO 480] |  | > 50 |
| GVKDGWEDCGIAQVGELCVL [SEQ ID NO 402] |  | > 15 |
| EDCWMAQVGQLCDL [SEQ ID NO 403] |  | > 15 |
| FECWIAQVGELCDL [SEQ ID NO 411] |  | > 15 |
| HDCWFAKLGELCDLRQMSFV [SEQ ID NO 416] |  | > 15 |
| HECRFAQVGELCDL [SEQ ID NO 418] |  | > 15 |
| HQCRFAHVGELCDLFVFESY [SEQ ID NO 419] |  | > 15 |
| KACSIAQVGDLCEIYGFDDA [SEQ ID NO 421] |  | > 15 |
| KDCRLAYVGELCDLNRSDTI [SEQ ID NO 423] |  | > 15 |
